Experimental data published in PMC2686265, “ATP and MO25α Regulate the Conformational State of the STRADα Pseudokinase and Activation of the LKB1 Tumour Suppressor” (PLoS Biology, 2009).
Residue numbers refer to the chain shown, from its start. Names may count otherwise. Like-named read-outs stand apart in the source and are kept apart here.

Tests used:
STRADα = target: T1, STRADα (Homo sapiens, UniProt Q7RTN6); experiment: Displacement of TNP-ATP by ATP and ADP (fluorescence); format: binding; details: STRADα alone, No Mg2+, displacement of 5 µM TNP-ATP
T1 construct: wild-type and mutant forms of STRADα (residues 54–431) and MO25α (residues 1–341) were expressed individually as GST fusion proteins in E. coli; GST (cleaved yes); made in house; host or cells: E. coli
T1 sequence (Q7RTN6 54-431): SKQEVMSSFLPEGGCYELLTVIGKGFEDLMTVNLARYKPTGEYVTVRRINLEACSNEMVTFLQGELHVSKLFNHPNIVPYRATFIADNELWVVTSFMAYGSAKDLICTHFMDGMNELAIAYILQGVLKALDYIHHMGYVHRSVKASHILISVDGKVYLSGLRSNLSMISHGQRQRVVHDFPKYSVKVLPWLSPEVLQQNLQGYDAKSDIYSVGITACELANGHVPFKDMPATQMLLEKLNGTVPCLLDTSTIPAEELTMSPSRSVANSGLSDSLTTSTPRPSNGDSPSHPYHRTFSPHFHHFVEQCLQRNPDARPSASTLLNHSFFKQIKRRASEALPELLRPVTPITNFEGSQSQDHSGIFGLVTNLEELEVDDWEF
Experimental: Fluorescent measurements of TNP-ATP (Molecular Probes), were obtained at 25°C in assay buffer (with the addition of 0.5–1.0 mM MgCl2 where indicated) using 1-cm pathlength cuvettes in a VARIAN Cary Eclipse Fluorescence spectrophotometer (Varian). Fluorescence was recorded using a 410-nm/540-nm excitation/emission wavelengths from 500 to 600 nm. In all cases, signal from the TNP-ATP buffer control was subtracted as background. For all binding studies, STRADα and STRADα mutants were assayed at 2 µM. In cases where STRADα/MO25α complexes were assayed, wild-type or mutant MO25α (2 µM) were preincubated for at least 2 h at 4°C prior to a fluorescence binding experiment. For saturation binding experiments, concentrated stocks of TNP-ATP were added stepwise, covering a range of concentrations from 0.05 to 30 µM. For displacement experiments, the concentration of TNP-ATP was fixed at 5 µM, and ATP or ADP was titrated in, covering a range of concentrations from 0.05 to 500 µM.
All data were analysed using GraphPad-PRISM software (http://www.graphpad.com). […] In the displacement studies, equilibrium constant values for ATP and ADP were calculated by first determining the logEC50 value, using a standard dose-response equation: F x/F max = minimum+(maximum−minimum)/(1+10^([N]−logEC 50 ^)), where [N] equals the concentration of added nucleotide, and F x/F max represents the fractional occupancy. […]

[1] = target: T2, untagged STRADα (residues 59–431) (human, UniProt Q7RTN6 59-431); experiment: SPR; BIAcore T100, MO25α amine-coupled to CM5 chip, STRADα injected (5 µM to 0.3 nM), 25°C, 50 mM Tris pH 7.8, 50 mM NaCl, 270 mM sucrose, 1 mM DTT, 0.005% P20, 0.1 mg/ml BSA; without ATP; Kd = kd/ka; details: both partners purified
T2 construct: STRADα, human, residues 59–431; also called STRADα lacking the His tag
T2 sequence (looked up): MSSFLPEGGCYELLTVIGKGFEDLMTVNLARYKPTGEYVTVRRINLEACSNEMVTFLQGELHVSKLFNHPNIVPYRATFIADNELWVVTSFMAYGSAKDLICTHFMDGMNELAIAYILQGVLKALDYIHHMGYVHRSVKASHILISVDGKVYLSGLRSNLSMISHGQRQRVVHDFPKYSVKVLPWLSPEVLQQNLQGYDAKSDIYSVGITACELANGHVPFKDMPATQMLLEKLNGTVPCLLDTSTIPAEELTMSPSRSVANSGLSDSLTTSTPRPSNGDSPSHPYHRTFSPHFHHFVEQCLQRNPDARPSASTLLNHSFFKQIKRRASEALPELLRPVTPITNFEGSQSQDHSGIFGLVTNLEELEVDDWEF

MO25α (M260A) = target: T3, MO25α (M260A) (Homo sapiens, UniProt Q7RTN6+Q9Y376, M260A); experiment: SPR BIAcore binding of STRADα to immobilised MO25α; details: + ATP + Mg2+
T3 construct: wild-type and mutant forms of STRADα (residues 54–431) and MO25α (residues 1–341) were expressed individually as GST fusion proteins in E. coli; GST (cleaved yes); made in house; host or cells: E. coli
T3 sequence (Q9Y376 1-341 M260A): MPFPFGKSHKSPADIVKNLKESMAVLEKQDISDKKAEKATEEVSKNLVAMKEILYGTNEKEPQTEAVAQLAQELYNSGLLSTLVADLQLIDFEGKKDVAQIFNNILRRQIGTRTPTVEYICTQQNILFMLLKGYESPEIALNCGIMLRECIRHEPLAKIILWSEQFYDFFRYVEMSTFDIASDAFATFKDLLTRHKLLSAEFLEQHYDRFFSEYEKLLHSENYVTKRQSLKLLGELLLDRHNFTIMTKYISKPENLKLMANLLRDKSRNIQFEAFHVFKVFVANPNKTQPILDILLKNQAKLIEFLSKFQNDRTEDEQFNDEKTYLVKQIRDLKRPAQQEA
T3 sequence (Q7RTN6 59-431): T2 sequence (looked up)
Experimental: (§1) SPR measurements were performed using a BIAcore T100 instrument. Wild-type and mutant forms of MO25α were immobilized on a CM5 sensor chip using standard amine-coupling chemistry, and 10 mM HBS (pH 7.4) was used as the running buffer. The carboxymethyl dextran surface was activated with a 7-min injection of a 1∶1 ratio of 0.4 M 1-ethyl-3-(3-dimethylaminopropyl) carbodiimide hydrochloride (EDC)/0.1 M N-hydroxy succinimide (NHS). MO25α (5–7 µM) was coupled to the surface with a 1-min injection of protein diluted in 10 mM sodium acetate (pH 5.5). Remaining activated groups were blocked with a 7-min injection of 1 M ethanolamine (pH 8.5). MO25α was immobilised on three flow cells of a CM5 chip at densities 1,700–2,500 RU performed at 25°C, leaving one flow cell as a reference to subtract any possible nonspecific binding.
(§2) STRADα was prepared in running buffer containing 50 mM Tris (pH 7.8), 50 mM NaCl, 270 mM sucrose, 1 mM DTT, 0.005% P20, and 0.1 mg/ml BSA in the presence/absence of 100 µM ATP and 1 mM MgCl2, and injected over all four surfaces at nine concentrations of a 3-fold concentration series (5 µM to […]). Each concentration was injected in duplicate over all surfaces. Association was measured for 60 s at a flow rate of 50 µl/min, and dissociation was measured for 3 min. STRADα dissociated completely from the MO25α surfaces, thus eliminating the need for a regeneration step.
(§3) Data were analysed using Scrubber 2 (BioLogic Software) and CLAMP software. Data were double referenced to the reference surface to subtract any possible nonspecific binding and to the blank buffer injections to subtract drift of the target from surface. Data were fitted to a 1∶1 or 2∶1 binding site model where appropriate. Kinetic association (k a) and dissociation rate (k d) constants were separately determined from the BIAcore sensorgrams, and equilibrium dissociation constants (K d) were calculated as: K d1 = k d1/k a1 and K d2 = k d2/k a2. Equilibrium constants were also independently calculated from a saturation binding curve, by fitting the measured response (R) from specific binding to the following equation: R = (R max1[STRAD]/([STRAD]+K d1))+(R max2[STRAD]/([STRAD]+K d2)), where R max1 and R max2 are the relative maximal changes in response for sites 1 and 2, respectively, and K d1 and K d2 are the equilibrium dissociation constants for sites 1 and 2, respectively. Dose-response curves for calculating the Hill slope (H) of the data were fitted with the following equation: R = minimum+(maximum−minimum)/(1+10^((logEC50−[STRAD])×H)) using GraphPad-PRISM software.

MO25α (R227A) = target: T4, MO25α (R227A) (Homo sapiens, UniProt Q7RTN6+Q9Y376, R227A); experiment: SPR BIAcore binding of STRADα to immobilised MO25α; details: + ATP + Mg2+
T4 construct: wild-type and mutant forms of STRADα (residues 54–431) and MO25α (residues 1–341) were expressed individually as GST fusion proteins in E. coli; GST (cleaved yes); made in house; host or cells: E. coli
T4 sequence (Q9Y376 1-341 R227A): T3 sequence (Q9Y376 1-341 M260A) with R227A, A260M
T4 sequence (Q7RTN6 59-431): T2 sequence (looked up)
Experimental: as §1, §2, §3

MO25α (WT) = target: T5, MO25α (WT) (Homo sapiens, UniProt Q7RTN6+Q9Y376); experiment: SPR BIAcore binding of STRADα to immobilised MO25α; details: + ATP + Mg2+
T5 construct: wild-type and mutant forms of STRADα (residues 54–431) and MO25α (residues 1–341) were expressed individually as GST fusion proteins in E. coli; GST (cleaved yes); made in house; host or cells: E. coli (STRADα: BL21(DE3)pLysS, co-expressed with MO25α and then separated from it)
T5 sequence (Q9Y376 1-341): T3 sequence (Q9Y376 1-341 M260A) with A260M
T5 sequence (Q7RTN6 59-431): T2 sequence (looked up)
Experimental: as §1, §2, §3

Nc1ncnc2c1ncn2[C@@H]1O[C@H](COP(=O)(O)OP(=O)(O)O)[C@@H](O)[C@H]1O [ADP]
Kd (STRADα; read-out: Kd ADP): 2000 to 3000 nM

Nc1ncnc2c1ncn2[C@@H]1O[C@H](COP(=O)(O)OP(=O)(O)OP(=O)(O)O)[C@@H](O)[C@H]1O [ATP]
Kd (STRADα; read-out: Kd ATP): 2000 to 3000 nM

B1: MO25α (WT) (residues 1–341) (natural protein, human, UniProt Q9Y376 1-341, looked up)
chain: T3 sequence (Q9Y376 1-341 M260A) with A260M
notes: MO25α, human, residues 1–341 (full length); also called MO25α (WT, wild type); wild-type MO25α; source: E. coli, expressed individually as GST fusion, purified on glutathione-Sepharose, eluted with PreScission protease
Kd [1]: 3800 nM

B2: MO25α (M260A) (residues 1–341) (natural protein, human, UniProt Q9Y376 1-341, looked up)
chain: T3 sequence (Q9Y376 1-341 M260A)
notes: MO25α, human, residues 1–341 (full length), M260A; source: E. coli, expressed individually as GST fusion, purified on glutathione-Sepharose, eluted with PreScission protease
binding result [1]: binds

B3: His-STRADα: STRADα (residues 59–431) with N-terminal 6-His tag, SPR analyte (protein)
chain: T2 sequence (looked up)
modifications: lysines chemically methylated in the 2.35 Å crystal form only; left off: His6 with TEV site (…), N-terminal, kept
notes: STRADα (residues 59–431) with N-terminal 6-His tag, SPR analyte
kd1 (MO25α (M260A)): 0.77 (4.6 × 10−3) s−1 | kd2 (MO25α (M260A)): 0.11 (5.3 × 10−4) s−1 | kd1 (MO25α (R227A)): 1.61 (7.0 × 10−3) s−1 | kd1 (MO25α (WT)): 0.55 (3.8 × 10−3) s−1 | kd2 (MO25α (WT)): 0.08 (4.8 × 10−4) s−1
